Target: TERF1, P54274-2
Sequence (P54274 other isoform, or with tags, fused parts or gaps): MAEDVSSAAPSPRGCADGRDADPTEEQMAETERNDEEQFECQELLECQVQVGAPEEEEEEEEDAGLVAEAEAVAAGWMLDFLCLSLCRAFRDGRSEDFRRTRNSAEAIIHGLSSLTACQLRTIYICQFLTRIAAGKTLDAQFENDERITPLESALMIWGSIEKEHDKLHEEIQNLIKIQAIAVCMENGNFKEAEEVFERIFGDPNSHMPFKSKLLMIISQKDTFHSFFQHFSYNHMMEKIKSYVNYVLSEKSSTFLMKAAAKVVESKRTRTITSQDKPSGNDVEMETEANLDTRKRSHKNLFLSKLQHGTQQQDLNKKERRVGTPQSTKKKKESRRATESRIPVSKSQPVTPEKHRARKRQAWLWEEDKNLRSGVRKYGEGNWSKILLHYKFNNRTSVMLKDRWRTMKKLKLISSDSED

Substance: Serine-protein kinase ATM (Homo sapiens), Q13315 D2870A;N2875K
- effect of a mutation on the interaction: disrupting interaction
